{"source": "the Immune Epitope Database (IEDB)", "key": {"[1]": {"target": "HLA-B*53:01", "test": "IEDB peptide-MHC binding, purified MHC/competitive/radioactivity; filed as Kd, often an IC50 or EC50 that approximates it; ≥ and ≤ were set here for values at or beyond the usual limits of such assays"}, "[2]": {"target": "HLA-B*35:01", "test": "IEDB peptide-MHC binding, purified MHC/competitive/radioactivity; filed as Kd, often an IC50 or EC50 that approximates it; ≥ and ≤ were set here for values at or beyond the usual limits of such assays"}, "[3]": {"target": "HLA-B*51:01", "test": "IEDB peptide-MHC binding, purified MHC/competitive/radioactivity; filed as Kd, often an IC50 or EC50 that approximates it; ≥ and ≤ were set here for values at or beyond the usual limits of such assays"}, "[4]": {"target": "HLA-B*07:02", "test": "IEDB peptide-MHC binding, purified MHC/competitive/radioactivity; filed as Kd, often an IC50 or EC50 that approximates it; ≥ and ≤ were set here for values at or beyond the usual limits of such assays"}, "[5]": {"target": "HLA-B*54:01", "test": "IEDB peptide-MHC binding, purified MHC/competitive/radioactivity; filed as Kd, often an IC50 or EC50 that approximates it; ≥ and ≤ were set here for values at or beyond the usual limits of such assays"}, "[6]": {"target": "HLA-B*44:03", "test": "IEDB peptide-MHC binding, purified MHC/competitive/radioactivity; filed as Kd, often an IC50 or EC50 that approximates it; ≥ and ≤ were set here for values at or beyond the usual limits of such assays"}, "[7]": {"target": "HLA-B*40:01", "test": "IEDB peptide-MHC binding, purified MHC/competitive/radioactivity; filed as Kd, often an IC50 or EC50 that approximates it; ≥ and ≤ were set here for values at or beyond the usual limits of such assays", "settings": "source organism: Dengue virus 3 Martinique/1243/1999"}, "[8]": {"target": "HLA-A*11:01", "test": "IEDB peptide-MHC binding, purified MHC/competitive/radioactivity; filed as Kd, often an IC50 or EC50 that approximates it; ≥ and ≤ were set here for values at or beyond the usual limits of such assays", "settings": "source organism: Vaccinia virus WR"}, "[9]": {"target": "HLA-A*03:01", "test": "IEDB peptide-MHC binding, purified MHC/competitive/radioactivity; filed as Kd, often an IC50 or EC50 that approximates it; ≥ and ≤ were set here for values at or beyond the usual limits of such assays", "settings": "source organism: Vaccinia virus WR"}, "[10]": {"target": "HLA-A*31:01", "test": "IEDB peptide-MHC binding, purified MHC/competitive/radioactivity; filed as Kd, often an IC50 or EC50 that approximates it; ≥ and ≤ were set here for values at or beyond the usual limits of such assays", "settings": "source organism: Vaccinia virus WR"}, "[11]": {"target": "HLA-A*68:01", "test": "IEDB peptide-MHC binding, purified MHC/competitive/radioactivity; filed as Kd, often an IC50 or EC50 that approximates it; ≥ and ≤ were set here for values at or beyond the usual limits of such assays", "settings": "source organism: Vaccinia virus WR"}, "[12]": {"target": "HLA-A*33:01", "test": "IEDB peptide-MHC binding, purified MHC/competitive/radioactivity; filed as Kd, often an IC50 or EC50 that approximates it; ≥ and ≤ were set here for values at or beyond the usual limits of such assays", "settings": "source organism: Vaccinia virus WR"}, "[13]": {"target": "HLA-A*03:01", "test": "IEDB peptide-MHC binding, purified MHC/competitive/fluorescence; filed as Kd, often an IC50 or EC50 that approximates it; ≥ and ≤ were set here for values at or beyond the usual limits of such assays"}, "[14]": {"target": "HLA-A*24:03", "test": "IEDB peptide-MHC binding, purified MHC/direct/fluorescence; filed as Kd, often an IC50 or EC50 that approximates it; ≥ and ≤ were set here for values at or beyond the usual limits of such assays", "settings": "source organism: Mammarenavirus lassaense"}, "[15]": {"settings": "source organism: Mammarenavirus juninense"}, "[16]": {"settings": "source organism: Vaccinia virus WR"}, "[17]": {"settings": "source organism: SARS coronavirus Tor2"}, "[18]": {"settings": "source organism: Triticum aestivum"}, "[19]": {"settings": "source organism: Mammarenavirus machupoense"}}}
{"sequence": "MPGVLSYVV", "values": [{"measurement": "Kd", "setting": "[1]; [15]", "result": 187, "unit": "nM"}, {"measurement": "Kd", "setting": "[2]; [15]", "result": 22.2, "unit": "nM"}, {"measurement": "Kd", "setting": "[3]; [15]", "result": 208, "unit": "nM"}, {"measurement": "Kd", "setting": "[4]; [15]", "result": 1030, "unit": "nM"}, {"measurement": "Kd", "setting": "[5]; [15]", "result": 0.507, "unit": "nM"}]}
{"sequence": "MPSACANGWI", "values": [{"measurement": "Kd", "setting": "[1]; [16]", "result": 5240, "unit": "nM"}, {"measurement": "Kd", "setting": "[2]; [16]", "result": "≥ 69900", "unit": "nM"}, {"measurement": "Kd", "setting": "[3]; [16]", "result": "≥ 43500", "unit": "nM"}, {"measurement": "Kd", "setting": "[4]; [16]", "result": "≥ 31400", "unit": "nM"}, {"measurement": "Kd", "setting": "[5]; [16]", "result": 5400, "unit": "nM"}]}
{"sequence": "FPPTSFGPLV", "values": [{"measurement": "Kd", "setting": "[1]; [17]", "result": 4860, "unit": "nM"}, {"measurement": "Kd", "setting": "[2]; [17]", "result": "≥ 24700", "unit": "nM"}, {"measurement": "Kd", "setting": "[3]; [17]", "result": 6260, "unit": "nM"}, {"measurement": "Kd", "setting": "[4]; [17]", "result": 2080, "unit": "nM"}, {"measurement": "Kd", "setting": "[5]; [17]", "result": 1260, "unit": "nM"}]}
{"sequence": "IPCRDVVL", "values": [{"measurement": "Kd", "setting": "[1]; [18]", "result": "≥ 49100", "unit": "nM"}, {"measurement": "Kd", "setting": "[2]; [18]", "result": 17100, "unit": "nM"}, {"measurement": "Kd", "setting": "[3]; [18]", "result": 67.7, "unit": "nM"}, {"measurement": "Kd", "setting": "[4]; [18]", "result": 3680, "unit": "nM"}, {"measurement": "Kd", "setting": "[5]; [18]", "result": "≥ 87700", "unit": "nM"}]}
{"sequence": "FPNITNLCPF", "values": [{"measurement": "Kd", "setting": "[1]; [17]", "result": 0.782, "unit": "nM"}, {"measurement": "Kd", "setting": "[2]; [17]", "result": 1.66, "unit": "nM"}, {"measurement": "Kd", "setting": "[3]; [17]", "result": 6.33, "unit": "nM"}, {"measurement": "Kd", "setting": "[4]; [17]", "result": 56.6, "unit": "nM"}, {"measurement": "Kd", "setting": "[5]; [17]", "result": 445, "unit": "nM"}]}
{"sequence": "EESRTIRVL", "values": [{"measurement": "Kd", "setting": "[6]; source organism: Dengue virus 3 Martinique/1243/1999", "result": 30.2, "unit": "nM"}, {"measurement": "Kd", "setting": "[7]", "result": 249, "unit": "nM"}]}
{"sequence": "HVDGKILFV", "values": [{"measurement": "Kd", "setting": "[8]", "result": "≥ 72300", "unit": "nM"}, {"measurement": "Kd", "setting": "[1]; [16]", "result": 11500, "unit": "nM"}, {"measurement": "Kd", "setting": "[9]", "result": 3140, "unit": "nM"}, {"measurement": "Kd", "setting": "[2]; [16]", "result": "≥ 77400", "unit": "nM"}, {"measurement": "Kd", "setting": "[10]", "result": "≥ 40500", "unit": "nM"}, {"measurement": "Kd", "setting": "[3]; [16]", "result": "≥ 68500", "unit": "nM"}, {"measurement": "Kd", "setting": "[4]; [16]", "result": "≥ 77500", "unit": "nM"}, {"measurement": "Kd", "setting": "[11]", "result": "≥ 77700", "unit": "nM"}, {"measurement": "Kd", "setting": "[5]; [16]", "result": "≥ 78100", "unit": "nM"}, {"measurement": "Kd", "setting": "[12]", "result": "≥ 77700", "unit": "nM"}]}
{"sequence": "ADTGCAVSW", "values": [{"measurement": "Kd", "setting": "[6]; source organism: Dengue virus 4 Philippines/H241/1956", "result": 224, "unit": "nM"}]}
{"sequence": "RMKWMMAMRY", "values": [{"measurement": "Kd", "setting": "[13]; source organism: Influenza A virus (A/chicken/Fujian/25/00(H9N2))", "result": 131, "unit": "nM"}]}
{"sequence": "FPLNSKVKVI", "values": [{"measurement": "Kd", "setting": "[1]; [17]", "result": 1070, "unit": "nM"}, {"measurement": "Kd", "setting": "[2]; [17]", "result": "≥ 29400", "unit": "nM"}, {"measurement": "Kd", "setting": "[3]; [17]", "result": 4710, "unit": "nM"}, {"measurement": "Kd", "setting": "[4]; [17]", "result": "≥ 33400", "unit": "nM"}, {"measurement": "Kd", "setting": "[5]; [17]", "result": 927, "unit": "nM"}]}
{"sequence": "AVLPRDMVF", "values": [{"measurement": "Kd", "setting": "[14]", "result": 110, "unit": "nM"}]}
{"sequence": "LPTSITVPV", "values": [{"measurement": "Kd", "setting": "[1]; [19]", "result": 72.5, "unit": "nM"}, {"measurement": "Kd", "setting": "[2]; [19]", "result": 3.55, "unit": "nM"}, {"measurement": "Kd", "setting": "[3]; [19]", "result": 1970, "unit": "nM"}, {"measurement": "Kd", "setting": "[4]; [19]", "result": 67.1, "unit": "nM"}, {"measurement": "Kd", "setting": "[5]; [19]", "result": 4.01, "unit": "nM"}]}
{"sequence": "LPYPQPQLPY", "values": [{"measurement": "Kd", "setting": "[1]; [18]", "result": 4.49, "unit": "nM"}, {"measurement": "Kd", "setting": "[2]; [18]", "result": 0.487, "unit": "nM"}, {"measurement": "Kd", "setting": "[3]; [18]", "result": 9.22, "unit": "nM"}, {"measurement": "Kd", "setting": "[4]; [18]", "result": 4330, "unit": "nM"}, {"measurement": "Kd", "setting": "[5]; [18]", "result": 8530, "unit": "nM"}]}
{"sequence": "AMSTWSFYH", "values": [{"measurement": "Kd", "setting": "[13]; source organism: Yersinia pestis Nepal516", "result": 13.3, "unit": "nM"}]}
{"sequence": "MVFVELPSK", "values": [{"measurement": "Kd", "setting": "[13]; source organism: Bacillus anthracis str. A0488", "result": 101, "unit": "nM"}]}
{"sequence": "FPDIPVNNNI", "values": [{"measurement": "Kd", "setting": "[1]; [16]", "result": 1.22, "unit": "nM"}, {"measurement": "Kd", "setting": "[2]; [16]", "result": 442, "unit": "nM"}, {"measurement": "Kd", "setting": "[3]; [16]", "result": 66.7, "unit": "nM"}, {"measurement": "Kd", "setting": "[4]; [16]", "result": 821, "unit": "nM"}, {"measurement": "Kd", "setting": "[5]; [16]", "result": 69.3, "unit": "nM"}]}
{"sequence": "MEHKYSWKS", "values": [{"measurement": "Kd", "setting": "[6]; source organism: Dengue virus 1 Brazil/97-11/1997", "result": 1000, "unit": "nM"}]}
{"sequence": "PPYCTIAPVGI", "values": [{"measurement": "Kd", "setting": "[1]; [18]", "result": "≥ 63700", "unit": "nM"}, {"measurement": "Kd", "setting": "[2]; [18]", "result": "≥ 63700", "unit": "nM"}, {"measurement": "Kd", "setting": "[3]; [18]", "result": "≥ 41300", "unit": "nM"}, {"measurement": "Kd", "setting": "[4]; [18]", "result": 4470, "unit": "nM"}, {"measurement": "Kd", "setting": "[5]; [18]", "result": "≥ 27700", "unit": "nM"}]}
{"sequence": "RLNPMHQLLR", "values": [{"measurement": "Kd", "setting": "[13]; source organism: Influenza A virus H3N2", "result": 805, "unit": "nM"}]}
{"sequence": "FSFGDYFKK", "values": [{"measurement": "Kd", "setting": "[13]; source organism: Fusobacterium vincentii ATCC 49256", "result": 39.5, "unit": "nM"}]}
